From US7410949 (Hoffmann-La Roche, dated 2008)
*1 amine or outer side, *2 acyl side, *3 side chain or, on linkers, in order; H or OH if unused. [ ]: non-standard residue; d: D form. Pqa = N-piperazin-1-yl-4(3H)-quinazolinone-3-acetic acid, O=C(Cn1cnc2ccc(N3CCN([*:1])CC3)cc2c1=O)[*:2]; Nle = CCCC[C@H](N)C(=O)O

B1: H-Ile-(D)Lys-Pqa-Arg-His-Tyr-Leu-Asn-Leu-Val-Thr-Arg-Gln-Arg-Tyr-NH2 (peptide)
peptide: IKRHYLNLVTRQRY
modifications: (D)Lys at PYY position 4 (residue 2 of the first part); Pqa moiety between the two parts; C-terminal amide
B2: H-(D) Ile-Lys-Pqa-Arg-His-Tyr-Leu-Asn-Leu-Val-Thr-Arg-Gln-Arg-Tyr-NH2 (peptide)
peptide: IKRHYLNLVTRQRY
modifications: (D)Ile at PYY position 3 (residue 1 of the first part); Pqa moiety between the two parts; C-terminal amide
B3: H-Ile-Lys-Pqa-Arg-His-Tyr-Leu-Asn-Leu-Val-Thr-Arg-Gln-Arg-(NMe)Tyr-NH2 (peptide)
peptide: IKRHYLNLVTRQRY
modifications: N-methyl Tyr at PYY position 36 (residue 12 of the second part); Pqa moiety between the two parts; C-terminal amide
B4: H-Ile-Lys-Pqa-Arg-His-Tyr-Leu-Asn-Leu-Val-Thr-(NMe)Arg-Gln-Arg-Tyr-NH2 (peptide)
peptide: IKRHYLNLVTRQRY
modifications: N-methyl Arg at PYY position 33 (residue 9 of the second part); Pqa moiety between the two parts; C-terminal amide
B5: H-Ile-Lys-Pqa-Arg-His-Tyr-Leu-Asn-Leu-Val-(NMe)Thr-Arg-Gln-Arg-Tyr-NH2 (peptide)
peptide: IKRHYLNLVTRQRY
modifications: N-methyl Thr at PYY position 32 (residue 8 of the second part); Pqa moiety between the two parts; C-terminal amide
B6: H-Ile-Lys-Pqa-Arg-His-Tyr-Leu-Asn-Leu-(NMe)Val-Thr-Arg-Gln-Arg-Tyr-NH2 (peptide)
peptide: IKRHYLNLVTRQRY
modifications: N-methyl Val at PYY position 31 (residue 7 of the second part); Pqa moiety between the two parts; C-terminal amide
B7: H-Ile-Lys-Pqa-Arg-His-Tyr-Leu-Asn-(NMe)Leu-Val-Thr-Arg-Gln-Arg-Tyr-NH2 (peptide)
peptide: IKRHYLNLVTRQRY
modifications: N-methyl Leu at PYY position 30 (residue 6 of the second part); Pqa moiety between the two parts; C-terminal amide
B8: H-Ile-Lys-Pqa-Arg-His-Tyr-(NMe)Leu-Asn-Leu-Val-Thr-Arg-Gln-Arg-Tyr-NH2 (peptide)
peptide: IKRHYLNLVTRQRY
modifications: N-methyl Leu at PYY position 28 (residue 4 of the second part); Pqa moiety between the two parts; C-terminal amide
B9: H-Ile-Lys-Pqa-Arg-His-(NMe)Tyr-Leu-Asn-Leu-Val-Thr-Arg-Gln-Arg-Tyr-NH2 (peptide)
peptide: IKRHYLNLVTRQRY
modifications: N-methyl Tyr at PYY position 27 (residue 3 of the second part); Pqa moiety between the two parts; C-terminal amide
B10: Ac-Ile-Nle-Pqa-Phe-His-Tyr-Leu-Asn-Leu-Val-Thr-Arg-Gln-Arg-Tyr-NH2 (peptide)
peptide: Ac-I[Nle][Pqa]FHYLNLVTRQRY-NH2
SMILES: CCCC[C@H](NC(=O)[C@@H](NC(C)=O)[C@@H](C)CC)C(=O)N1CCN(c2ccc3ncn(CC(=O)N[C@@H](Cc4ccccc4)C(=O)N[C@@H](Cc4c[nH]cn4)C(=O)N[C@@H](Cc4ccc(O)cc4)C(=O)N[C@@H](CC(C)C)C(=O)N[C@@H](CC(N)=O)C(=O)N[C@@H](CC(C)C)C(=O)N[C@H](C(=O)N[C@H](C(=O)N[C@@H](CCCNC(=N)N)C(=O)N[C@@H](CCC(N)=O)C(=O)N[C@@H](CCCNC(=N)N)C(=O)N[C@@H](Cc4ccc(O)cc4)C(N)=O)[C@@H](C)O)C(C)C)c(=O)c3c2)CC1
B11: H-Ile-Lys-Pqa-Arg-(D)His-Tyr-Leu-Asn-Leu-Val-Thr-Arg-Gln-Arg-Tyr-NH2 (peptide)
peptide: IKRHYLNLVTRQRY
modifications: (D)His at PYY position 26 (residue 2 of the second part); Pqa moiety between the two parts; C-terminal amide
B12: H-Ile-Lys-Pqa-(D)Arg-His-Tyr-Leu-Asn-Leu-Val-Thr-Arg-Gln-Arg-Tyr-NH2 (peptide)
peptide: IKRHYLNLVTRQRY
modifications: (D)Arg at PYY position 25 (residue 1 of the second part); Pqa moiety between the two parts; C-terminal amide
B13: H-Ile-Lys-Pqa-Arg-(NMe)His-Tyr-Leu-Asn-Leu-Val-Thr-Arg-Gln-Arg-Tyr-NH2 (peptide)
peptide: IKRHYLNLVTRQRY
modifications: N-methyl His at PYY position 26 (residue 2 of the second part); Pqa moiety between the two parts; C-terminal amide
B14: H-Ile-Lys-Pqa-(NMe)Arg-His-Tyr-Leu-Asn-Leu-Val-Thr-Arg-Gln-Arg-Tyr-NH2 (peptide)
peptide: IKRHYLNLVTRQRY
modifications: N-methyl Arg at PYY position 25 (residue 1 of the second part); Pqa moiety between the two parts; C-terminal amide

What follows are binders tested against Y1R (assay: cell-based or functional assay).
Chain of Y1R (P25929 whole entry): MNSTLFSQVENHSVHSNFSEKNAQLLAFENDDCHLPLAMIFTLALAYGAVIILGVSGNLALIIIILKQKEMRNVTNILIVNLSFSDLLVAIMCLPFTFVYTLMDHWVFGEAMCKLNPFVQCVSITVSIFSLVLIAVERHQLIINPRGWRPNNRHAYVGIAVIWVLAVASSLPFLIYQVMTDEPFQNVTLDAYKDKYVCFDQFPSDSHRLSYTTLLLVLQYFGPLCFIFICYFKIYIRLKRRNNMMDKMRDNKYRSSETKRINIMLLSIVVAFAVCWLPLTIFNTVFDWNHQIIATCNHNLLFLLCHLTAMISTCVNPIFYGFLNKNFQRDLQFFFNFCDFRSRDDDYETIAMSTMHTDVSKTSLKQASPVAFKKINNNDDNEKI

Y1R EC50(nM) FLIPR, > 5000 nM:
B1
B2
B3
B4
B5
B6
B7
B8
B9
B10

The binders below were run against Y4R (assay: cell-based or functional assay).

Y4R EC50(nM) FLIPR, > 5000 nM:
B11
B12
B1
B2
B3
B4
B5
B6
B7
B8
B9
B13
B14
B10
